Test results as given in article PMC7367449.

Legend:
[1] = molecular target: recombinant hCD134 with C-terminal human FcHis-tag replacing the transmembrane domain (hCD134-hFcHis) (human) (UniProt P43489); test: SPR; Biacore T200, CM5 chip; hCD134-hFcHis captured via immobilised Protein A; soluble tetramer injected; steady-state affinity analysis of the response units at equilibrium
[2] = molecular target: anti-gH Mab OHV-3 (murine); test: SPR; Biacore T200, CM5 chip; Mab captured via immobilised Protein A/Protein L; soluble tetramer injected at 5, 10, 20, 40 and 80 nM; single-cycle kinetics
[3] = molecular target: recombinant hCD134 with C-terminal human FcHis-tag replacing the transmembrane domain (hCD134-hFcHis) (human) (UniProt P43489); test: SPR; Biacore T200, CM5 chip; hCD134-hFcHis captured via immobilised Protein A; soluble tetramer injected; multi-cycle kinetics, 1:1 binding fit

Chain of UniProt P43489 (P43489 29-214): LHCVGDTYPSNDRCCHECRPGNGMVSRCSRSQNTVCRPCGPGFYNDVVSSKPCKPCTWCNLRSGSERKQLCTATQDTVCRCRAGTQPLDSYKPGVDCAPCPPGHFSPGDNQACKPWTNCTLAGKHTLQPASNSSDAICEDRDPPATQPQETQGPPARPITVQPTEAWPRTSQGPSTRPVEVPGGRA
Chain of anti-gH Mab OHV-3 (murine) (heavy, as listed by the source, chain 1 of 2): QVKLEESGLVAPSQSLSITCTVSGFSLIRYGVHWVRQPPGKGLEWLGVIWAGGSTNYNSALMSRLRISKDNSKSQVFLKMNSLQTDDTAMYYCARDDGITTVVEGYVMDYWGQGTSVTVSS
Chain of anti-gH Mab OHV-3 (murine) (light, as listed by the source, chain 2 of 2): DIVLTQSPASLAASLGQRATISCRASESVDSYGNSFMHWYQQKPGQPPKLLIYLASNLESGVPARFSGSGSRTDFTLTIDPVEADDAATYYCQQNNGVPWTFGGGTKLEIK

Substance: soluble HHV-6B gH/gL/gQ1/gQ2 complex (HHV-6B tetramer)
- Kd [1]: 18 nM
- Kd [2]: 2.7 nM
- koff [2]: 0.00035 s⁻¹
- kon [2]: 130000 M⁻¹ s⁻¹
- Kd [3]: 14 nM
- koff [3]: 0.0158 s⁻¹
- kon [3]: 1.1e+06 M⁻¹ s⁻¹
